Results taken from the supplement of paper PMC10126150.
± gives the standard deviation of the averaged measurements.

System: ATP
Assay: switch fluorescence ratio, 500 uM ATP over buffer (Cy3 cluster intensity, sum of 5 cycles each) (fold (ratio)); higher = stronger signal-on switching upon ATP binding; sequences stand for … in TCGTCGGCAGCGTCAGATGTGTATAAGAGACAGTTTTTTTTTTTTTTTTTTTTTTTTT…TC
Conditions: aptamer strand: ATP DNA aptamer (quencher-CACCTGGGGGAGTATTGCGGAGGAAGG + anchor), 100 nM annealed; ATP concentration: 500 uM
Summary of the method: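 Switching-strand clusters labelled with Cy3 on a modified Illumina MiSeq flow-cell were annealed to 100 nM quencher-labelled ATP aptamer, imaged in selection buffer, and re-imaged after 15 min with 500 uM ATP at 22 °C. This was done over five cycles with NaOH stripping and re-annealing in between. The fluorescence ratio is summed target-cycle over summed buffer-cycle Cy3 intensity per cluster, averaged per switch-domain sequence, excluding clusters outside 100-1000 RFU.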
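Also: ATP exposure 15 min at 22 °C before imaging.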

GTTTTTGCCA
switch fluorescence ratio: 1.01 ± 0.016

GTTTTTGGAG
switch fluorescence ratio: 0.98219 ± 0.00097

GTTTTTGTGA
switch fluorescence ratio: 0.9693 ± 0.0079

GTTTTTGTGG
switch fluorescence ratio: 0.992 ± 0.01

GTTTTTGTTT
switch fluorescence ratio: 1 ± 0.033

GTTTTTTAAC
switch fluorescence ratio: 1.01 ± 0.04

GTTTTTTAGA
switch fluorescence ratio: 0.9728 ± 0.0018

GTTTTTTCCG
switch fluorescence ratio: 0.992 ± 0.012

GTTTTTTCGG
switch fluorescence ratio: 0.993 ± 0.023

GTTTTTTGAT
switch fluorescence ratio: 1.008 ± 0.0042

GTTTTTTGGT
switch fluorescence ratio: 0.982 ± 0.03

GTTTTTTTAA
switch fluorescence ratio: 1 ± 0.034

GTTTTTTTAG
switch fluorescence ratio: 1 ± 0.033

GTTTTTTTCG
switch fluorescence ratio: 0.9829 ± 0.007

GTTTTTTTT
switch fluorescence ratio: 1.05 ± 0.069

TAAAAAACGG
switch fluorescence ratio: 0.954 ± 0.042

TAAAAAGCGA
switch fluorescence ratio: 0.987 ± 0.012

TAAAAAGCGC
switch fluorescence ratio: 1.03 ± 0.03

TAAAAAGGTA
switch fluorescence ratio: 1.02 ± 0.028

TAAAAAGTAC
switch fluorescence ratio: 1.02 ± 0.027

TAAAAAGTAG
switch fluorescence ratio: 0.992 ± 0.024

TAAAAATACA
switch fluorescence ratio: 1.1 ± 0.13

TAAAAATCCC
switch fluorescence ratio: 1.16 ± 0.083

TAAAAATCTT
switch fluorescence ratio: 1.01 ± 0.041

TAAAAATGAG
switch fluorescence ratio: 1.014 ± 0.0069

TAAAAATTGG
switch fluorescence ratio: 0.997 ± 0.014

TAAAACAGCG
switch fluorescence ratio: 1.01 ± 0.012

TAAAACGCTC
switch fluorescence ratio: 1.07 ± 0.073

TAAAACTCCA
switch fluorescence ratio: 1.03 ± 0.038

TAAAAGAGGA
switch fluorescence ratio: 0.9974 ± 0.0058

TAAAAGAGGG
switch fluorescence ratio: 0.9558 ± 0.0023

TAAAAGATAG
switch fluorescence ratio: 1 ± 0.019

TAAAAGGGCT
switch fluorescence ratio: 0.999 ± 0.011

TAAAAGGGTA
switch fluorescence ratio: 1 ± 0.019

TAAAAGGGTT
switch fluorescence ratio: 1 ± 0.031

TAAAAGTATT
switch fluorescence ratio: 1.03 ± 0.068

TAAAAGTCGG
switch fluorescence ratio: 1.01 ± 0.019

TAAAAGTG
switch fluorescence ratio: 0.961 ± 0.05

TAAAAGTTTA
switch fluorescence ratio: 1.04 ± 0.016

TAAAAGTTTG
switch fluorescence ratio: 0.996 ± 0.034

TAAAATAGGG
switch fluorescence ratio: 1.01 ± 0.018

TAAAATGTTC
switch fluorescence ratio: 0.988 ± 0.048

TAAAATTGAG
switch fluorescence ratio: 1 ± 0.024

TAAAATTGTA
switch fluorescence ratio: 0.9917 ± 0.0035

TAAACCGGTT
switch fluorescence ratio: 0.984 ± 0.027

TAAACGAAGT
switch fluorescence ratio: 0.956 ± 0.054

TAAAGAATTT
switch fluorescence ratio: 0.98 ± 0.032

TAAAGAGGGG
switch fluorescence ratio: 1 ± 0.021

TAAAGATGG
switch fluorescence ratio: 0.995 ± 0.027

TAAAGCTTAA
switch fluorescence ratio: 1.05 ± 0.041

TAAAGGATG
switch fluorescence ratio: 0.968 ± 0.019

TAAAGGCACG
switch fluorescence ratio: 1.03 ± 0.07

TAAAGGCGGG
switch fluorescence ratio: 0.987 ± 0.023

TAAAGGCGTG
switch fluorescence ratio: 0.96 ± 0.022

TAAAGGGCTT
switch fluorescence ratio: 1.02 ± 0.018

TAAAGGGGAG
switch fluorescence ratio: 1.01 ± 0.019

TAAAGGGTAA
switch fluorescence ratio: 0.9888 ± 0.0044

TAAAGGGTGG
switch fluorescence ratio: 0.987 ± 0.032

TAAAGGTTCG
switch fluorescence ratio: 0.9618 ± 0.009

TAAAGGTTCT
switch fluorescence ratio: 1.02 ± 0.03

TAAAGTAAAT
switch fluorescence ratio: 0.9668 ± 0.0028

TAAAGTGCAT
switch fluorescence ratio: 1.036 ± 0.0066

TAAAGTGCGA
switch fluorescence ratio: 0.993 ± 0.035

TAAATAAATT
switch fluorescence ratio: 1.01 ± 0.044

TAAATAAGTT
switch fluorescence ratio: 1.004 ± 0.0097

TAAATACTCG
switch fluorescence ratio: 1.25 ± 0.044

TAAATCCTTT
switch fluorescence ratio: 1 ± 0.053

TAAATCGGCA
switch fluorescence ratio: 1.004 ± 0.0021

TAAATCGGCG
switch fluorescence ratio: 0.989 ± 0.023

TAAATGACTA
switch fluorescence ratio: 0.987 ± 0.018

TAAATGGGTG
switch fluorescence ratio: 1.03 ± 0.028

TAAATGTCTG
switch fluorescence ratio: 0.995 ± 0.015

TAAATTAATC
switch fluorescence ratio: 1.01 ± 0.018

TAAATTAGGG
switch fluorescence ratio: 0.992 ± 0.033

TAAATTGGTA
switch fluorescence ratio: 1.04 ± 0.016

TAACAAATAG
switch fluorescence ratio: 0.9741 ± 0.0062

TAACAAGGGT
switch fluorescence ratio: 1 ± 0.016

TAACACTCCT
switch fluorescence ratio: 1.1 ± 0.02

TAACAGAAGA
switch fluorescence ratio: 0.991 ± 0.017

TAACAGGGGG
switch fluorescence ratio: 0.995 ± 0.017

TAACAGGTTT
switch fluorescence ratio: 0.989 ± 0.016

TAACAGTGTG
switch fluorescence ratio: 1.04 ± 0.046

TAACATCTGT
switch fluorescence ratio: 0.975 ± 0.021

TAACCGCTTT
switch fluorescence ratio: 1.55 ± 0.7

TAACGAGATT
switch fluorescence ratio: 1.02 ± 0.026

TAACGCATG
switch fluorescence ratio: 1.13 ± 0.082

TAACGCTTTT
switch fluorescence ratio: 1.002 ± 0.0065

TAACGGAGGG
switch fluorescence ratio: 0.993 ± 0.04

TAACGGGATG
switch fluorescence ratio: 1 ± 0.017

TAACGTGTTT
switch fluorescence ratio: 1 ± 0.017

TAACTAGGAG
switch fluorescence ratio: 1.12 ± 0.16

TAACTATGTA
switch fluorescence ratio: 1.02 ± 0.034

TAACTGTGGA
switch fluorescence ratio: 1.08 ± 0.085

TAACTTACAT
switch fluorescence ratio: 1.19 ± 0.018

TAACTTGCTC
switch fluorescence ratio: 1.05 ± 0.054

TAACTTTGGC
switch fluorescence ratio: 0.9536 ± 0.0091

TAAGAAATGG
switch fluorescence ratio: 1.02 ± 0.079

TAAGAAGTTA
switch fluorescence ratio: 1.02 ± 0.03

TAAGAATCGC
switch fluorescence ratio: 1.15 ± 0.2

TAAGAATGTT
switch fluorescence ratio: 0.977 ± 0.0098

TAAGAGCTGA
switch fluorescence ratio: 0.985 ± 0.023

TAAGAGGCAC
switch fluorescence ratio: 0.996 ± 0.052

TAAGAGGGCT
switch fluorescence ratio: 0.996 ± 0.022

TAAGAGGGGT
switch fluorescence ratio: 1.03 ± 0.07

TAAGAGTACT
switch fluorescence ratio: 1.008 ± 0.0019

TAAGAGTGCA
switch fluorescence ratio: 0.973 ± 0.027

TAAGATCTTA
switch fluorescence ratio: 0.997 ± 0.015

TAAGATGTAG
switch fluorescence ratio: 0.9957 ± 0.0011

TAAGATGTTG
switch fluorescence ratio: 1.01 ± 0.019

TAAGATTACA
switch fluorescence ratio: 1.017 ± 0.006

TAAGATTGTT
switch fluorescence ratio: 1.02 ± 0.017

TAAGCAGGTT
switch fluorescence ratio: 0.995 ± 0.017

TAAGCATAAG
switch fluorescence ratio: 1.01 ± 0.027

TAAGCCGCCT
switch fluorescence ratio: 0.998 ± 0.016

TAAGCCTTTT
switch fluorescence ratio: 1.038 ± 0.0024

TAAGCGCGGC
switch fluorescence ratio: 1.055 ± 0.0079

TAAGCGGGG
switch fluorescence ratio: 1.002 ± 0.0026

TAAGCGGGGA
switch fluorescence ratio: 1.027 ± 0.0054

TAAGCGTCTG
switch fluorescence ratio: 1.013 ± 0.0057

TAAGCTATTT
switch fluorescence ratio: 1.02 ± 0.025

TAAGCTGCGT
switch fluorescence ratio: 0.989 ± 0.03

TAAGCTTACA
switch fluorescence ratio: 1.04 ± 0.032

TAAGCTTTGT
switch fluorescence ratio: 0.9902 ± 0.0025

TAAGGAATGC
switch fluorescence ratio: 1.54 ± 0.035

TAAGGAATTG
switch fluorescence ratio: 1.01 ± 0.045

TAAGGACGGG
switch fluorescence ratio: 1.02 ± 0.03

TAAGGAGGTG
switch fluorescence ratio: 1.033 ± 0.008

TAAGGAGTTT
switch fluorescence ratio: 0.972 ± 0.016

TAAGGCAC
switch fluorescence ratio: 1.04 ± 0.017

TAAGGCGGAG
switch fluorescence ratio: 0.9951 ± 0.0032

TAAGGCGGGG
switch fluorescence ratio: 0.993 ± 0.042

TAAGGCTACC
switch fluorescence ratio: 1.048 ± 0.004

TAAGGCTGC
switch fluorescence ratio: 1.04 ± 0.076

TAAGGGCAGA
switch fluorescence ratio: 1.02 ± 0.045

TAAGGGGAAA
switch fluorescence ratio: 0.979 ± 0.026

TAAGGGGGAA
switch fluorescence ratio: 1.03 ± 0.06

TAAGGGGGCC
switch fluorescence ratio: 1.08 ± 0.16

TAAGGGGGCT
switch fluorescence ratio: 1.01 ± 0.034

TAAGGGGTCC
switch fluorescence ratio: 0.979 ± 0.013

TAAGGGGTTC
switch fluorescence ratio: 0.982 ± 0.022

TAAGGGGTTT
switch fluorescence ratio: 1.03 ± 0.058

TAAGGGTAAT
switch fluorescence ratio: 0.973 ± 0.046

TAAGGGTGCA
switch fluorescence ratio: 0.994 ± 0.064

TAAGGGTTTT
switch fluorescence ratio: 1 ± 0.036

TAAGGTCGAT
switch fluorescence ratio: 1.01 ± 0.022

TAAGGTGGTA
switch fluorescence ratio: 1.02 ± 0.014

TAAGGTTTTG
switch fluorescence ratio: 1.01 ± 0.022

TAAGGTTTTT
switch fluorescence ratio: 1.03 ± 0.063

TAAGTATGTT
switch fluorescence ratio: 1.002 ± 0.0031

TAAGTGAGAA
switch fluorescence ratio: 0.983 ± 0.038

TAAGTGAGGG
switch fluorescence ratio: 0.981 ± 0.018

TAAGTGAGGT
switch fluorescence ratio: 0.99677 ± 0.00077

TAAGTGATG
switch fluorescence ratio: 1 ± 0.034

TAAGTGCTGG
switch fluorescence ratio: 1.01 ± 0.016

TAAGTGGGCC
switch fluorescence ratio: 1 ± 0.036

TAAGTGGTCG
switch fluorescence ratio: 1.03 ± 0.036

TAAGTTAGTC
switch fluorescence ratio: 1.02 ± 0.012

TAAGTTATAT
switch fluorescence ratio: 0.985 ± 0.015

TAAGTTATGG
switch fluorescence ratio: 0.997 ± 0.02

TAAGTTGATC
switch fluorescence ratio: 0.989 ± 0.053

TAAGTTGGTA
switch fluorescence ratio: 0.9521 ± 0.0054

TAAGTTGGTG
switch fluorescence ratio: 0.976 ± 0.018

TAAGTTTTAG
switch fluorescence ratio: 1.07 ± 0.081

TAATAAAATT
switch fluorescence ratio: 1.04 ± 0.083

TAATAAATGT
switch fluorescence ratio: 0.9941 ± 0.0044

TAATAAGGCT
switch fluorescence ratio: 0.9935 ± 0.0076

TAATAATCTA
switch fluorescence ratio: 1.01 ± 0.027

TAATAATTCT
switch fluorescence ratio: 0.99 ± 0.019

TAATACCAAG
switch fluorescence ratio: 1 ± 0.029

TAATACTATG
switch fluorescence ratio: 1.05 ± 0.074

TAATACTTAT
switch fluorescence ratio: 0.994 ± 0.033

TAATAGGCCT
switch fluorescence ratio: 1.026 ± 0.01

TAATAGGTTG
switch fluorescence ratio: 0.97 ± 0.012

TAATAGTTCC
switch fluorescence ratio: 1.106 ± 0.0025

TAATAGTTT
switch fluorescence ratio: 1.04 ± 0.033

TAATATATTT
switch fluorescence ratio: 1.01 ± 0.028

TAATATTTAA
switch fluorescence ratio: 1.05 ± 0.009

TAATCACAAT
switch fluorescence ratio: 1.032 ± 0.0044

TAATCACGAA
switch fluorescence ratio: 1.036 ± 0.0039

TAATCGATAT
switch fluorescence ratio: 0.9803 ± 0.0026

TAATCGCCAA
switch fluorescence ratio: 1.05 ± 0.0039

TAATCGCCTG
switch fluorescence ratio: 0.981 ± 0.034

TAATCGCTAA
switch fluorescence ratio: 1.13 ± 0.14

TAATCGGGGT
switch fluorescence ratio: 0.978 ± 0.038

TAATGACGCT
switch fluorescence ratio: 0.997 ± 0.027

TAATGAGGGA
switch fluorescence ratio: 1 ± 0.038

TAATGCAGGA
switch fluorescence ratio: 1.02 ± 0.015

TAATGGAGGG
switch fluorescence ratio: 0.965 ± 0.047

TAATGGGAAA
switch fluorescence ratio: 1.04 ± 0.013

TAATGGGACG
switch fluorescence ratio: 1.08 ± 0.14

TAATGGGGAC
switch fluorescence ratio: 0.967 ± 0.03

TAATGGGGAG
switch fluorescence ratio: 0.993 ± 0.014

TAATGGTATG
switch fluorescence ratio: 0.982 ± 0.039

TAATGGTATT
switch fluorescence ratio: 0.97547 ± 0.00097

TAATGGTTGC
switch fluorescence ratio: 0.996 ± 0.014

TAATGGTTTT
switch fluorescence ratio: 1.02 ± 0.025

TAATGTAACG
switch fluorescence ratio: 1 ± 0.063

TAATGTAATG
switch fluorescence ratio: 0.999 ± 0.031

TAATGTGGTA
switch fluorescence ratio: 0.979 ± 0.056

TAATGTTTGC
switch fluorescence ratio: 1.01 ± 0.033
